Experimental data reported in patent US20220332804A1 (CSL INNOVATION, published 2022).
One block for each binder: values may come before it.

Legend:
cynomolgus monkey C2 [1] = target: T1, cynomolgus monkey C2 (cynomolgus monkey, UniProt G8F3W0 21-752); experiment: cell-based or functional assay
T1 sequence: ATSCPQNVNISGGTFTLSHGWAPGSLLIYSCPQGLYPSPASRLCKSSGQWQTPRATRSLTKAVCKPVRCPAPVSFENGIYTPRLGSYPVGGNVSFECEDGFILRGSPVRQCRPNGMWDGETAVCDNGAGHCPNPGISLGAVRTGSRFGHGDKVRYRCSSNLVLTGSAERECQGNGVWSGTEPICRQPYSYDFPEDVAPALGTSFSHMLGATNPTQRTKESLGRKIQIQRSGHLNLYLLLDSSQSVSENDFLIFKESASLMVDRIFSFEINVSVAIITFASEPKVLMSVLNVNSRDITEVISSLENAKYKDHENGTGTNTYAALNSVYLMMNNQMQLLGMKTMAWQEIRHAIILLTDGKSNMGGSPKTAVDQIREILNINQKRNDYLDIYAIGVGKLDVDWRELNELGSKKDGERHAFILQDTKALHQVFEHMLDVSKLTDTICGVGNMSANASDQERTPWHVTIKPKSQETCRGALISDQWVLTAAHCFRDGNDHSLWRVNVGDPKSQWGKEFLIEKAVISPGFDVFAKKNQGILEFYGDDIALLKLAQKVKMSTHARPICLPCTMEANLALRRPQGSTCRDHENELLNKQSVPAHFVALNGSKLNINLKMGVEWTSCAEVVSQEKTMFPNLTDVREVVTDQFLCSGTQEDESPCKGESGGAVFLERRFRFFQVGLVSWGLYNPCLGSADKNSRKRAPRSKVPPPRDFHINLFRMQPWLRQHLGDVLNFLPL

human complement C2 [2] = target: T2, human complement C2 (human, UniProt P06681 21-752); experiment: cell-based or functional assay
T2 sequence: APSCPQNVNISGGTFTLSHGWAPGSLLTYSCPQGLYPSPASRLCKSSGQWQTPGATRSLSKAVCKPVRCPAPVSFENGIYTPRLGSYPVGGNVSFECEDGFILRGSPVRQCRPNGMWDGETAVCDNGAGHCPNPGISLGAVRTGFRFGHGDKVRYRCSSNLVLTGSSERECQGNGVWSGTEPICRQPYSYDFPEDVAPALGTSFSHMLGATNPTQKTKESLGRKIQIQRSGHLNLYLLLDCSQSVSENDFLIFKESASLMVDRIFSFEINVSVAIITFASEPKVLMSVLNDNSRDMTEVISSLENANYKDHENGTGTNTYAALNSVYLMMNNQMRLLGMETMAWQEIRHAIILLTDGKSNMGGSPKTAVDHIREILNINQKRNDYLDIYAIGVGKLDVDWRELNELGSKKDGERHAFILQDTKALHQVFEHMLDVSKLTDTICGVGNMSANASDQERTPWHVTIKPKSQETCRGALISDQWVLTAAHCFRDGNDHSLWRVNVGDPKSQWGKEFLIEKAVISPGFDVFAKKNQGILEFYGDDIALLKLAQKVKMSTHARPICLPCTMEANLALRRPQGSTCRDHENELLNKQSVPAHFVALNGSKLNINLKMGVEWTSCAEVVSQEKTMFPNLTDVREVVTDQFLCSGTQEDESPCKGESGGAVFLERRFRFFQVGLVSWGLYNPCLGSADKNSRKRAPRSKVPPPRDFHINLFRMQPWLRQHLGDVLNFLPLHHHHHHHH

human complement C2 [3] = target: T2, human complement C2; experiment: SPR, mAb captured, C2 analyte, MHAs buffer, pH 5.8, steady state
Method: (§1) Surface plasmon resonance (SPR, Biacore) was used for all binding affinity analyses. In brief, goat anti-human IgG was directly immobilised onto the carboxymethyl dextran surface of CM5 sensorchips to approximately 12,000 RU using standard NHS/EDC chemistry at pH 5. The immobilised antibody surface was pre-conditioned with ten injections of polyclonal human IgG (Privigen 60 s) prepared at 1 μg/mL. Ligands (anti-C2 mAbs) were captured at the beginning of each cycle as described below. An adjacent spot or flow cell in which only Polyclonal IgG was capture was used as a reference surface. The goat anti-human IgG Fc antibody surface was regenerate in 100 mM H3PO4, injected for 45 seconds at the end of each cycle. Experiments were performed at 37° C. and the flow rate of each experiment was kept constant at 30 μL/min.
(§2) This buffer contains ammonium sulfate instead of sodium chloride.

cynomolgus monkey C2 [4] = target: T1, cynomolgus monkey C2; experiment: SPR, mAb captured, cyno C2 analyte, pH 6.0
Method: as §1
(§3) In addition to human C2, the pH dependent anti-C2 antibodies were also tested for their ability to bind to C2 from other mammalian species using the SPR methods described above in order to identify suitable surrogate species for in vivo testing. The antibodies were tested for binding at neutral pH against C2 from cynomolgus monkeys, mice, dogs, rabbits, rats, pigs, and sheep.

cynomolgus monkey C2 [5] = target: T1, cynomolgus monkey C2; experiment: cell-based or functional assay; remark: listed apart in the source
human complement C2 [6] = target: T2, human complement C2; experiment: SPR, mAb captured, C2 analyte, HBS-EP, pH 6.0
Method: as §1
(§4) The pH dependent anti-C2 antibodies and their germlined versions were tested for their affinity to C2 at pH 7.3 (neutral pH) and pH 6.0 (early endosome pH) using the SPR methods described above in HBS-EP buffer.

cynomolgus monkey C2 [7] = target: T1, cynomolgus monkey C2; experiment: SPR, mAb captured, cyno C2 analyte, pH 7.3
Method: as §1, §3

human complement C2 [8] = target: T2, human complement C2; experiment: SPR, mAb captured, C2 analyte, HBS-EP, pH 7.3
Method: as §1, §4

human complement C2 [9] = target: T2, human complement C2; experiment: cell-based or functional assay; remark: listed apart in the source
human complement C2 [10] = target: T2, human complement C2; experiment: SPR, mAb captured, C2 analyte, MHAs buffer, pH 7.3
Method: as §1, §2

mouse C2 = target: T3, mouse C2 (mouse, UniProt P21180 19-760, limits assumed); experiment: SPR, mAb captured, mouse C2 analyte, pH 7.3
T3 sequence (looked up): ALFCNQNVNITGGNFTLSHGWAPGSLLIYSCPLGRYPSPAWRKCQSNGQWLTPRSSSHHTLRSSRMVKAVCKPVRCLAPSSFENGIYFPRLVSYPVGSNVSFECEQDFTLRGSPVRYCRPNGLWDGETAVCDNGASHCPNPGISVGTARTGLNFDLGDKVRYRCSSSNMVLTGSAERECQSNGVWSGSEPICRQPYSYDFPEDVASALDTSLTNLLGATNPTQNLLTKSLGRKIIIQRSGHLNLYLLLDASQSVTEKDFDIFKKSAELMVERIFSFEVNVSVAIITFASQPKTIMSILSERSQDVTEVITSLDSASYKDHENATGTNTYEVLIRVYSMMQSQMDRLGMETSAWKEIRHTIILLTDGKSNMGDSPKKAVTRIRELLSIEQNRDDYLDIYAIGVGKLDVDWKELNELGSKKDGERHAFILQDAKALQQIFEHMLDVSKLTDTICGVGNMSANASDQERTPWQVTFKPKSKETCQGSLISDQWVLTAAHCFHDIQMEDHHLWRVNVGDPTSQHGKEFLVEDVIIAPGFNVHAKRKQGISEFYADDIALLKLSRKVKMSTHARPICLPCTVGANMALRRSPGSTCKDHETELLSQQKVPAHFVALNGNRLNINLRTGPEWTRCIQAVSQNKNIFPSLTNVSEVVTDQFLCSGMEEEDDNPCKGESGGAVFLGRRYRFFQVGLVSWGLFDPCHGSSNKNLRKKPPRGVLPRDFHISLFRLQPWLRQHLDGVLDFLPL
Method: as §1, §3

Kd (human complement C2 [3]): 5510 nM | Kd (cynomolgus monkey C2 [4]): 141 nM | IC50, inhibition of cynomolgus classical complement pathway (Wieslab assay) (cynomolgus monkey C2 [5]): 18.8 nM | IC50, inhibition of cynomolgus lectin complement pathway (Wieslab assay) (cynomolgus monkey C2 [5]): 140 nM | Kd (human complement C2 [6]): 114 nM | Kd (cynomolgus monkey C2 [7]): 5.1 nM | Kd (human complement C2 [8]): 11.6 nM | IC50, inhibition of human classical complement pathway (Wieslab assay) (human complement C2 [9]): 12.5 nM | IC50, inhibition of human lectin complement pathway (Wieslab assay) (human complement C2 [9]): 5.6 nM | Kd (human complement C2 [10]): 44 nM | Kd (mouse C2): 160 nM
B1: RF16-226 (antibody)
heavy: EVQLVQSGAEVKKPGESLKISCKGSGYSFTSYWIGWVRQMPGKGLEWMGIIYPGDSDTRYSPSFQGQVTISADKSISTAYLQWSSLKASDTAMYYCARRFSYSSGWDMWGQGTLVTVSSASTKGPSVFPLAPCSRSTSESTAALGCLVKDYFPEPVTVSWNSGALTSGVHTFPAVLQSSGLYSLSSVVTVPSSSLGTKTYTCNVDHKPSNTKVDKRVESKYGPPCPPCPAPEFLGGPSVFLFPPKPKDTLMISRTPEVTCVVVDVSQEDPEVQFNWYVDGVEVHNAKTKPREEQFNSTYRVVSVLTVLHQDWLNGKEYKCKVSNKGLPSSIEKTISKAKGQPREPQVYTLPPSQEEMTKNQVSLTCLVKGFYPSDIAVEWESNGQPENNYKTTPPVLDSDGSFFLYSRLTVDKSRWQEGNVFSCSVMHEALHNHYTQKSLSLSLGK
light: SYELTQPPSVSVSPGQTARITCSGDALTSKYVAWYQQKSGLAPLLVIYEDTRRPSGIPAKFSGSSSGSVATLTISGAHGDDEADYYCYSTDASGHQRVFGGGTKLTVLSQPKAAPSVTLFPPSSEELQANKATLVCLISDFYPGAVTVAWKADGSPVKAGVETTKPSKQSNNKYAASSYLSLTPEQWKSHRSYSCQVTHEGSTVEKTVAPTECS
IC50, inhibition of cyno classical pathway (hemolysis assay), mean of three experiments (cynomolgus monkey C2 [1]): 124 nM | IC50, inhibition of human classical pathway (hemolysis assay) (human complement C2 [2]): 284 nM

Kd (human complement C2 [3]): 4670 nM | Kd (cynomolgus monkey C2 [4]): 137 nM | IC50, inhibition of cynomolgus classical complement pathway (Wieslab assay) (cynomolgus monkey C2 [5]): 134 nM | IC50, inhibition of cynomolgus lectin complement pathway (Wieslab assay) (cynomolgus monkey C2 [5]): 362 nM | Kd (human complement C2 [6]): 148 nM | Kd (cynomolgus monkey C2 [7]): 46.8 nM | Kd (human complement C2 [8]): 31 nM | IC50, inhibition of human classical complement pathway (Wieslab assay) (human complement C2 [9]): 18.6 nM | IC50, inhibition of human lectin complement pathway (Wieslab assay) (human complement C2 [9]): 7.69 nM | Kd (human complement C2 [10]): 233 nM | Kd (mouse C2): 885 nM
B2: RF16-214 (antibody, V domains shown)
VH: EVQLLESGGGLVQPGGSLRLSCAASGFTFSWYQMMWVRQAPGKGLEWVSRIYPSGGGTAYADSVKGRFTISRDNSKNTLYLQMNSLRAEDTAVYYCARDAGYGDNWGQGTLVTVSS
VL: QSALTQPPSVSVSPGQTASITCSGDKLGEKYASWYQQKAGQSPVMVIYQDRKRPSGIPERFSGSNSGNTATLTISGTQAMDEADYYCQAWDTRAVVFGGGTKLTVLG
IC50, inhibition of cyno classical pathway (hemolysis assay) (cynomolgus monkey C2 [1]): 630 nM | IC50, inhibition of human classical pathway (hemolysis assay) (human complement C2 [2]): 241 nM
